Test results from paper PMC5998137, “Regulation of the β-hemolysin gene cluster of Streptococcus anginosus by CcpA”.

Target: CcpA (Streptococcus anginosus, UniProt A0A412PPL7 1-334)
Assay: EMSA; 0.5-8 µg CcpA, 5 pmol probe; no HPr or fructose-1,6-bisphosphate; 500-fold unlabeled creC inhibits the shift
Details: protein: recombinant; tags: N-terminal His6; chain copies: 2; label: 5' IRDye700 on strand 1 (probe); blunt

B1: creC (dsDNA)
DNA 1: GTTTACGCGAAAGCGCTTTTTTTATATA
DNA 2: TATATAAAAAAAGCGCTTTCGCGTAAAC
binding result: binds
